Target: MAb E2-9
Test: inhibition ELISA: soluble Fba peptide against plate-coated Fba-MAP for MAb E2-9

Binder YGKDVKDLFDYAQE [Fba peptide (…), synthetic 14 mer from Candida albicans fructose-bisphosphate aldolase] has an IC50 of 10 µg/mL.

Reference: patent US20140037641A1
